*1 amine or outer side, *2 acyl side, *3 side chain or, on linkers, in order; H or OH if unused. Side-chain parts run from the residue outwards. The star is where a group is joined. C18 diacid = O=C(O)CCCCCCCCCCCCCCCCC(=O)*; γGlu = O=C(O)[C@H](CCC(=O)[*:2])N[*:1]; Isovaleryl = CC(C)CC(=O)*; AEEA = NCCOCCOCC(=O)O

T1: human neuropeptide Y2 receptor (human, UniProt P49146 1-381)
T1 construct: whole, on cells; also called hNPY2 receptor; hNPY2-R
T1 sequence (looked up): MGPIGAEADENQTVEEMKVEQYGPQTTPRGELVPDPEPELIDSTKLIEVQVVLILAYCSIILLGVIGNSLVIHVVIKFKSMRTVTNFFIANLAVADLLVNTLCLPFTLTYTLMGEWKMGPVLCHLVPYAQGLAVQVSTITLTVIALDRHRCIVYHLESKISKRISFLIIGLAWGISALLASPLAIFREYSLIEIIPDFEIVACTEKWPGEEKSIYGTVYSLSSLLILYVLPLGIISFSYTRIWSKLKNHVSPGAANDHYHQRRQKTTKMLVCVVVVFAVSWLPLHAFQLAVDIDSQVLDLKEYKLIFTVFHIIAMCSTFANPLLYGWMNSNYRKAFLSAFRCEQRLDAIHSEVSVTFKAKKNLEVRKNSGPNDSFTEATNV

B1: Compound 232 (peptide)
peptide: Isovaleryl-APAK([AEEA-AEEA-γGlu-C18 diacid])PPEDASPEELQRYYVELRHYYNWLTRQRY-NH2
SMILES: CC(C)CC(=O)N[C@@H](C)C(=O)N1CCC[C@H]1C(=O)N[C@@H](C)C(=O)N[C@@H](CCCCNC(=O)COCCOCCNC(=O)COCCOCCNC(=O)CC[C@H](NC(=O)CCCCCCCCCCCCCCCCC(=O)O)C(=O)O)C(=O)N1CCC[C@H]1C(=O)N1CCC[C@H]1C(=O)N[C@@H](CCC(=O)O)C(=O)N[C@@H](CC(=O)O)C(=O)N[C@@H](C)C(=O)N[C@@H](CO)C(=O)N1CCC[C@H]1C(=O)N[C@@H](CCC(=O)O)C(=O)N[C@@H](CCC(=O)O)C(=O)N[C@@H](CC(C)C)C(=O)N[C@@H](CCC(N)=O)C(=O)N[C@@H](CCCNC(=N)N)C(=O)N[C@@H](Cc1ccc(O)cc1)C(=O)N[C@@H](Cc1ccc(O)cc1)C(=O)N[C@H](C(=O)N[C@@H](CCC(=O)O)C(=O)N[C@@H](CC(C)C)C(=O)N[C@@H](CCCNC(=N)N)C(=O)N[C@@H](Cc1c[nH]cn1)C(=O)N[C@@H](Cc1ccc(O)cc1)C(=O)N[C@@H](Cc1ccc(O)cc1)C(=O)N[C@@H](CC(N)=O)C(=O)N[C@@H](Cc1c[nH]c2ccccc12)C(=O)N[C@@H](CC(C)C)C(=O)N[C@H](C(=O)N[C@@H](CCCNC(=N)N)C(=O)N[C@@H](CCC(N)=O)C(=O)N[C@@H](CCCNC(=N)N)C(=O)N[C@@H](Cc1ccc(O)cc1)C(N)=O)[C@@H](C)O)C(C)C
B2: Compound 241 (peptide)
peptide: Isovaleryl-APEK([AEEA-AEEA-γGlu-C18 diacid])PEEEASPEEIQRYYVSLRHYYNWLTRQRY-NH2
SMILES: CC[C@H](C)[C@H](NC(=O)[C@H](CCC(=O)O)NC(=O)[C@H](CCC(=O)O)NC(=O)[C@@H]1CCCN1C(=O)[C@H](CO)NC(=O)[C@H](C)NC(=O)[C@H](CCC(=O)O)NC(=O)[C@H](CCC(=O)O)NC(=O)[C@H](CCC(=O)O)NC(=O)[C@@H]1CCCN1C(=O)[C@H](CCCCNC(=O)COCCOCCNC(=O)COCCOCCNC(=O)CC[C@H](NC(=O)CCCCCCCCCCCCCCCCC(=O)O)C(=O)O)NC(=O)[C@H](CCC(=O)O)NC(=O)[C@@H]1CCCN1C(=O)[C@H](C)NC(=O)CC(C)C)C(=O)N[C@@H](CCC(N)=O)C(=O)N[C@@H](CCCNC(=N)N)C(=O)N[C@@H](Cc1ccc(O)cc1)C(=O)N[C@@H](Cc1ccc(O)cc1)C(=O)N[C@H](C(=O)N[C@@H](CO)C(=O)N[C@@H](CC(C)C)C(=O)N[C@@H](CCCNC(=N)N)C(=O)N[C@@H](Cc1c[nH]cn1)C(=O)N[C@@H](Cc1ccc(O)cc1)C(=O)N[C@@H](Cc1ccc(O)cc1)C(=O)N[C@@H](CC(N)=O)C(=O)N[C@@H](Cc1c[nH]c2ccccc12)C(=O)N[C@@H](CC(C)C)C(=O)N[C@H](C(=O)N[C@@H](CCCNC(=N)N)C(=O)N[C@@H](CCC(N)=O)C(=O)N[C@@H](CCCNC(=N)N)C(=O)N[C@@H](Cc1ccc(O)cc1)C(N)=O)[C@@H](C)O)C(C)C
B3: Compound 243 (peptide)
peptide: Isovaleryl-APEK([AEEA-AEEA-γGlu-C18 diacid])PEEEASPEELQQYYVSLRHYYNWLTRQRY-NH2
SMILES: CC(C)CC(=O)N[C@@H](C)C(=O)N1CCC[C@H]1C(=O)N[C@@H](CCC(=O)O)C(=O)N[C@@H](CCCCNC(=O)COCCOCCNC(=O)COCCOCCNC(=O)CC[C@H](NC(=O)CCCCCCCCCCCCCCCCC(=O)O)C(=O)O)C(=O)N1CCC[C@H]1C(=O)N[C@@H](CCC(=O)O)C(=O)N[C@@H](CCC(=O)O)C(=O)N[C@@H](CCC(=O)O)C(=O)N[C@@H](C)C(=O)N[C@@H](CO)C(=O)N1CCC[C@H]1C(=O)N[C@@H](CCC(=O)O)C(=O)N[C@@H](CCC(=O)O)C(=O)N[C@@H](CC(C)C)C(=O)N[C@@H](CCC(N)=O)C(=O)N[C@@H](CCC(N)=O)C(=O)N[C@@H](Cc1ccc(O)cc1)C(=O)N[C@@H](Cc1ccc(O)cc1)C(=O)N[C@H](C(=O)N[C@@H](CO)C(=O)N[C@@H](CC(C)C)C(=O)N[C@@H](CCCNC(=N)N)C(=O)N[C@@H](Cc1c[nH]cn1)C(=O)N[C@@H](Cc1ccc(O)cc1)C(=O)N[C@@H](Cc1ccc(O)cc1)C(=O)N[C@@H](CC(N)=O)C(=O)N[C@@H](Cc1c[nH]c2ccccc12)C(=O)N[C@@H](CC(C)C)C(=O)N[C@H](C(=O)N[C@@H](CCCNC(=N)N)C(=O)N[C@@H](CCC(N)=O)C(=O)N[C@@H](CCCNC(=N)N)C(=O)N[C@@H](Cc1ccc(O)cc1)C(N)=O)[C@@H](C)O)C(C)C
B4: Compound 238 (peptide)
peptide: Isovaleryl-APEK([AEEA-AEEA-γGlu-C18 diacid])TEEEASPEELQRYYVSLRHYYNWLTRQRY-NH2
SMILES: CC(C)CC(=O)N[C@@H](C)C(=O)N1CCC[C@H]1C(=O)N[C@@H](CCC(=O)O)C(=O)N[C@@H](CCCCNC(=O)COCCOCCNC(=O)COCCOCCNC(=O)CC[C@H](NC(=O)CCCCCCCCCCCCCCCCC(=O)O)C(=O)O)C(=O)N[C@H](C(=O)N[C@@H](CCC(=O)O)C(=O)N[C@@H](CCC(=O)O)C(=O)N[C@@H](CCC(=O)O)C(=O)N[C@@H](C)C(=O)N[C@@H](CO)C(=O)N1CCC[C@H]1C(=O)N[C@@H](CCC(=O)O)C(=O)N[C@@H](CCC(=O)O)C(=O)N[C@@H](CC(C)C)C(=O)N[C@@H](CCC(N)=O)C(=O)N[C@@H](CCCNC(=N)N)C(=O)N[C@@H](Cc1ccc(O)cc1)C(=O)N[C@@H](Cc1ccc(O)cc1)C(=O)N[C@H](C(=O)N[C@@H](CO)C(=O)N[C@@H](CC(C)C)C(=O)N[C@@H](CCCNC(=N)N)C(=O)N[C@@H](Cc1c[nH]cn1)C(=O)N[C@@H](Cc1ccc(O)cc1)C(=O)N[C@@H](Cc1ccc(O)cc1)C(=O)N[C@@H](CC(N)=O)C(=O)N[C@@H](Cc1c[nH]c2ccccc12)C(=O)N[C@@H](CC(C)C)C(=O)N[C@H](C(=O)N[C@@H](CCCNC(=N)N)C(=O)N[C@@H](CCC(N)=O)C(=O)N[C@@H](CCCNC(=N)N)C(=O)N[C@@H](Cc1ccc(O)cc1)C(N)=O)[C@@H](C)O)C(C)C)[C@@H](C)O
B5: Compound 234 (peptide)
peptide: Isovaleryl-APAK([AEEA-AEEA-γGlu-C18 diacid])PEEEASPEELQRYYVSLRHYYNWLTRQRY-NH2
SMILES: CC(C)CC(=O)N[C@@H](C)C(=O)N1CCC[C@H]1C(=O)N[C@@H](C)C(=O)N[C@@H](CCCCNC(=O)COCCOCCNC(=O)COCCOCCNC(=O)CC[C@H](NC(=O)CCCCCCCCCCCCCCCCC(=O)O)C(=O)O)C(=O)N1CCC[C@H]1C(=O)N[C@@H](CCC(=O)O)C(=O)N[C@@H](CCC(=O)O)C(=O)N[C@@H](CCC(=O)O)C(=O)N[C@@H](C)C(=O)N[C@@H](CO)C(=O)N1CCC[C@H]1C(=O)N[C@@H](CCC(=O)O)C(=O)N[C@@H](CCC(=O)O)C(=O)N[C@@H](CC(C)C)C(=O)N[C@@H](CCC(N)=O)C(=O)N[C@@H](CCCNC(=N)N)C(=O)N[C@@H](Cc1ccc(O)cc1)C(=O)N[C@@H](Cc1ccc(O)cc1)C(=O)N[C@H](C(=O)N[C@@H](CO)C(=O)N[C@@H](CC(C)C)C(=O)N[C@@H](CCCNC(=N)N)C(=O)N[C@@H](Cc1c[nH]cn1)C(=O)N[C@@H](Cc1ccc(O)cc1)C(=O)N[C@@H](Cc1ccc(O)cc1)C(=O)N[C@@H](CC(N)=O)C(=O)N[C@@H](Cc1c[nH]c2ccccc12)C(=O)N[C@@H](CC(C)C)C(=O)N[C@H](C(=O)N[C@@H](CCCNC(=N)N)C(=O)N[C@@H](CCC(N)=O)C(=O)N[C@@H](CCCNC(=N)N)C(=O)N[C@@H](Cc1ccc(O)cc1)C(N)=O)[C@@H](C)O)C(C)C
B6: Compound 242 (peptide)
peptide: Isovaleryl-APEK([AEEA-AEEA-γGlu-C18 diacid])PEADASAEELQRYYVSLRHYYNWLTRQRY-NH2
SMILES: CC(C)CC(=O)N[C@@H](C)C(=O)N1CCC[C@H]1C(=O)N[C@@H](CCC(=O)O)C(=O)N[C@@H](CCCCNC(=O)COCCOCCNC(=O)COCCOCCNC(=O)CC[C@H](NC(=O)CCCCCCCCCCCCCCCCC(=O)O)C(=O)O)C(=O)N1CCC[C@H]1C(=O)N[C@@H](CCC(=O)O)C(=O)N[C@@H](C)C(=O)N[C@@H](CC(=O)O)C(=O)N[C@@H](C)C(=O)N[C@@H](CO)C(=O)N[C@@H](C)C(=O)N[C@@H](CCC(=O)O)C(=O)N[C@@H](CCC(=O)O)C(=O)N[C@@H](CC(C)C)C(=O)N[C@@H](CCC(N)=O)C(=O)N[C@@H](CCCNC(=N)N)C(=O)N[C@@H](Cc1ccc(O)cc1)C(=O)N[C@@H](Cc1ccc(O)cc1)C(=O)N[C@H](C(=O)N[C@@H](CO)C(=O)N[C@@H](CC(C)C)C(=O)N[C@@H](CCCNC(=N)N)C(=O)N[C@@H](Cc1c[nH]cn1)C(=O)N[C@@H](Cc1ccc(O)cc1)C(=O)N[C@@H](Cc1ccc(O)cc1)C(=O)N[C@@H](CC(N)=O)C(=O)N[C@@H](Cc1c[nH]c2ccccc12)C(=O)N[C@@H](CC(C)C)C(=O)N[C@H](C(=O)N[C@@H](CCCNC(=N)N)C(=O)N[C@@H](CCC(N)=O)C(=O)N[C@@H](CCCNC(=N)N)C(=O)N[C@@H](Cc1ccc(O)cc1)C(N)=O)[C@@H](C)O)C(C)C

The experiment has as its target T1, human neuropeptide Y2 receptor. Description: radioligand competition (125I-PYY(1-36)), hNPY2R membranes. Summed up: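 Commercial human Y2 receptor membranes (0.5 μg protein/well) were incubated with peptide for 2 h at room temperature in 50 mM HEPES, 5 mM MgCl₂, 1 mM CaCl₂, pH 7.4, with 0.2% ovalbumin. Bound radioligand was separated on PEI-soaked GF/C filters and counted by scintillation, and IC₅₀ came from nonlinear sigmoidal regression.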
As usually defined, the Ki is the dissociation constant of the complex between target and ligand, obtained from inhibition or displacement. The low end stands for higher affinity, the high end for lower affinity. On to B1, for which the affinity corresponds to a Ki of 0.81 nM.

B2 came in with a Ki of 2.95 nM.

Regarding B3, the inhibition constant Ki was 2.07 nM.

Molecule B4 displayed a Ki of 25.1 nM.

In turn, B5 registered an inhibitory constant (Ki) of 1.95 nM.

The molecule B6 registered a Ki of 0.81 nM.
